Laboratory results: patent US20210316003A1 (Immunomedics, Inc., priority 2020, published 2021)
Read-outs that look alike come from different tables or passages of the source.

Experiments:
[1] = test system: patients with metastatic urothelial cancer (mUC); conditions: 10 mg/kg, cited from earlier work
[2] = test system: patients with metastatic urothelial cancer (mUC)
Method: Endpoints included safety, investigator-evaluated objective response rate (ORR per RECIST 1.1), clinical benefit rate, duration of response (DOR), progression-free survival (PFS), and overall survival (OS). Sequencing analysis of differentially mutated and expressed genes and pathways was performed in subsets of tumors from responders and non-responders.
Hematopoietic growth factors or blood transfusions were allowed at the investigator's discretion, but not prior to the first dose. Other supportive care (antiemetics, anti-diarrheal medications, or bone-stabilizing agents) were allowed as medically needed.
Additional secondary objectives included assessment of pharmacokinetics and immunogenicity, which were previously reported by Ocean and colleagues (Ocean et al., 2017, Cancer 123:3843-54). Safety evaluations included adverse events (AEs), serious adverse events (SAEs), laboratory safety evaluations, vital signs, physical examinations, and 12-lead electrocardiograms (ECG; performed at baseline, after completion of the infusion on day 1 of every even-numbered treatment cycle, at the end of treatment, and at the end of the study). AEs were graded according to the National Cancer Institute Common Terminology Criteria for Adverse Events, version 4.0.
The data cut-off date for this analysis was Sep. 1, 2018. ORR and CBR were calculated with 95% confidence intervals estimated by the Clopper-Pearson method (Clopper & Pearson, 1934, Biometrika 26:404-13). PFS, OS, and time-to-event endpoints were analyzed by the Kaplan-Meier method, with medians and corresponding 95% confidence intervals determined by the Brookmeyer and Crowley method with log-log transformation. Descriptive statistics were used to characterize AEs. Fischer's exact test was applied to a matrix of pathway-associated gene counts of mutated and wild type phenotypes between responders and non-responders to identify pathways enriched in either of the two response groups. P-values for single sample GSEA (ssGSEA) enrichment score differences between the responder and non-responder patient groups were obtained from the Mann-Whitney statistical test.

[3] = test system: patients with diverse metastatic cancers; conditions: human, in vivo
From the text: In the Phase I and the expansion phases, there are now 48 pts (excluding PDC) who are assessable by RECIST/CT for best response.

[4] = test system: patients with metastatic TNBC; conditions: second line or later (Bardia et al., 2019); cited from earlier work
[5] = mUC, N = 45, regardless of causality
[6] = mUC, N = 45, listed as Sacituzumab Govitecan

## sacituzumab govitecan
[1]; 35 mUC patients
  Complete responses (CR), number: 2
  Confirmed partial responses (PR), number: 6
  Objective response rate (ORR): 29%
  PR pending confirmation, number: 2
  Treated patients with a reduction in tumor size: Seventy-four
[1]; mUC
  ORR in patients with liver metastases: 25%
[2]; days 1 and 8 every 21 days, intravenous
  Maximum tolerated dose: 10 mg/kg
[2]; mUC, 18 of 45
  Patients with dose reductions: 40%
[2]; mUC, N = 45
  AEs leading to death or treatment-related deaths: no treatment-related deaths were reported
  Anemia, grade ≥3: 13%
  Diarrhea, grade ≥3: 9%
  Discontinued for treatment-related AE, %: (11.1) %
  Fatigue, grade ≥3: 9%
  Febrile neutropenia, grade ≥3: 7%
  Hypophosphatemia, grade ≥3: 11%
  Neutropenia, grade ≥3: 38%
  Peripheral neuropathy or cardiovascular AEs of grade 3 or higher: no cases
[2]; [5]
  Alopecia, Any Grade, % of patients: (40.0) %
  Alopecia, Any Grade, No. of patients: 18
  Alopecia, Grade 3, No. of patients: 0
  Alopecia, Grade 4, No. of patients: 0
  Anemia, Any Grade, % of patients: (33.3) %
  Anemia, Any Grade, No. of patients: 15
  Anemia, Grade 3, % of patients: (13.3) %
  Anemia, Grade 3, No. of patients: 6
  Anemia, Grade 4, No. of patients: 0
  Any adverse event, Any Grade, % of patients: (100) %
  Any adverse event, Any Grade, No. of patients: 45
  Any adverse event, Grade 3, % of patients: (55.6) %
  Any adverse event, Grade 3, No. of patients: 25
  Any adverse event, Grade 4, % of patients: 17.8%
  Any adverse event, Grade 4, No. of patients: 8
  Back pain, Any Grade, % of patients: (22.2) %
  Back pain, Any Grade, No. of patients: 10
  Back pain, Grade 3, No. of patients: 0
  Back pain, Grade 4, No. of patients: 0
  Constipation, Any Grade, % of patients: (44.4) %
  Constipation, Any Grade, No. of patients: 20
  Constipation, Grade 3, No. of patients: 0
  Constipation, Grade 4, No. of patients: 0
  Cough, Any Grade, % of patients: (31.1) %
  Cough, Any Grade, No. of patients: 14
  Cough, Grade 3, No. of patients: 0
  Cough, Grade 4, No. of patients: 0
  Decreased appetite, Any Grade, % of patients: (37.8) %
  Decreased appetite, Any Grade, No. of patients: 17
  Decreased appetite, Grade 3, No. of patients: 0
  Decreased appetite, Grade 4, No. of patients: 0
  Diarrhea, Any Grade, % of patients: (68.9) %
  Diarrhea, Any Grade, No. of patients: 31
  Diarrhea, Grade 3, No. of patients: 4
  Diarrhea, Grade 4, No. of patients: 0
  Dizziness, Any Grade, % of patients: (22.2) %
  Dizziness, Any Grade, No. of patients: 10
  Dizziness, Grade 3, No. of patients: 0
  Dizziness, Grade 4, No. of patients: 0
  Fatigue, Any Grade, % of patients: (57.8) %
  Fatigue, Any Grade, No. of patients: 26
  Fatigue, Grade 3, % of patients: (8.9) %
  Fatigue, Grade 3, No. of patients: 4
  Fatigue, Grade 4, No. of patients: 0
  Febrile neutropenia, Any Grade, % of patients: (6.7) %
  Febrile neutropenia, Any Grade, No. of patients: 3
  Febrile neutropenia, Grade 3, % of patients: (6.7) %
  Febrile neutropenia, Grade 3, No. of patients: 3
  Febrile neutropenia, Grade 4, No. of patients: 0
  Hypophosphatemia, Any Grade, % of patients: (20.0) %
  Hypophosphatemia, Any Grade, No. of patients: 9
  Hypophosphatemia, Grade 3, % of patients: (11.1) %
  Hypophosphatemia, Grade 3, No. of patients: 5
  Hypophosphatemia, Grade 4, No. of patients: 0
  Nausea, Any Grade, % of patients: (66.7) %
  Nausea, Any Grade, No. of patients: 30
  Nausea, Grade 3, % of patients: (2.2) %
  Nausea, Grade 3, No. of patients: 1
  Nausea, Grade 4, No. of patients: 0
  Neutropenia (incl. neutrophil count decreased), Any Grade, % of patients: (51.1) %
  Neutropenia (incl. neutrophil count decreased), Any Grade, No. of patients: 23
  Neutropenia, Grade 3, % of patients: (22.2) %
  Neutropenia, Grade 3, No. of patients: 10
  Neutropenia, Grade 4, % of patients: 15.6%
  Neutropenia, Grade 4, No. of patients: 7
  Pyrexia, Any Grade, % of patients: (24.4) %
  Pyrexia, Any Grade, No. of patients: 11
  Pyrexia, Grade 3, No. of patients: 0
  Pyrexia, Grade 4, No. of patients: 0
  Rash, Any Grade, % of patients: (22.2) %
  Rash, Any Grade, No. of patients: 10
  Rash, Grade 3, No. of patients: 0
  Rash, Grade 4, No. of patients: 0
  Vomiting, Any Grade, % of patients: (31.1) %
  Vomiting, Any Grade, No. of patients: 14
  Vomiting, Grade 3, % of patients: (2.2) %
  Vomiting, Grade 3, No. of patients: 1
  Vomiting, Grade 4, No. of patients: 0
[2]; [6]
  AEs leading to death or treatment-related deaths: No AEs leading to death or treatment-related deaths were reported
  Peripheral neuropathy or cardiovascular AEs of grade 3 or higher: No cases
[3]
  Anti-hRS7 or anti-SN-38 antibodies: No anti-hRS7 or anti-SN-38 antibodies were detected
[4]
  Median progression-free survival (PFS): 5.5 months
  Overall survival (OS): 13.0 months
  Response rate: 33.3%
